Assay results from patent US20250320281A1.

Experiments:
Assay in all cases: cell-based or functional assay
[1] = molecular target: HIV-1 94UG103 envelope glycoprotein (Env) on pseudovirus (HIV-1)
[2] = molecular target: HIV-1 JRFL envelope glycoprotein (Env) on pseudovirus (HIV-1)
[3] = molecular target: HIV-1 MGRM-C-027 envelope glycoprotein (Env) on pseudovirus (HIV-1)
[4] = molecular target: HIV-1 93UG077 envelope glycoprotein (Env) on pseudovirus (HIV-1)
[5] = molecular target: HIV-1 APV6 envelope glycoprotein (Env) on pseudovirus (HIV-1)
[6] = molecular target: HIV-1 92UG024 envelope glycoprotein (Env) on pseudovirus (HIV-1)
[7] = molecular target: HIV-1 92UG005 envelope glycoprotein (Env) on pseudovirus (HIV-1)
[8] = molecular target: HIV-1 CMU02 envelope glycoprotein (Env) on pseudovirus (HIV-1)
[9] = molecular target: HIV-1 MGRM-AG-005 envelope glycoprotein (Env) on pseudovirus (HIV-1)
[10] = molecular target: HIV-1 92BR020 envelope glycoprotein (Env) on pseudovirus (HIV-1)
[11] = molecular target: HIV-1 MGRM-A-010 envelope glycoprotein (Env) on pseudovirus (HIV-1)
[12] = molecular target: HIV-1 JRCSF envelope glycoprotein (Env) on pseudovirus (HIV-1) (UniProt P20871)
[13] = molecular target: HIV-1 MGRM-D-018 envelope glycoprotein (Env) on pseudovirus (HIV-1)
[14] = molecular target: HIV-1 NL43 envelope glycoprotein (Env) on pseudovirus (HIV-1)
[15] = molecular target: HIV-1 92TH021 envelope glycoprotein (Env) on pseudovirus (HIV-1)
[16] = molecular target: HIV-1 APV17 envelope glycoprotein (Env) on pseudovirus (HIV-1)
[17] = molecular target: HIV-1 MGRM-C-028 envelope glycoprotein (Env) on pseudovirus (HIV-1)
[18] = molecular target: HIV-1 MGRM-C-026 envelope glycoprotein (Env) on pseudovirus (HIV-1)
[19] = molecular target: aMLV envelope on pseudovirus (negative control virus)
[20] = molecular target: HIV-1 APV13 envelope glycoprotein (Env) on pseudovirus (HIV-1)
[21] = molecular target: HIV-1 92RW020 envelope glycoprotein (Env) on pseudovirus (HIV-1)
[22] = molecular target: HIV-1 93IN905 envelope glycoprotein (Env) on pseudovirus (HIV-1)
[23] = molecular target: HIV-1 MGRM-D-001 envelope glycoprotein (Env) on pseudovirus (HIV-1)

B1: PGT-136 (5329_C19; 5366_P21) human monoclonal anti-HIV-1 antibody (antibody, V domains shown)
VH: QLQLQESGPGLVKPSETLSLTCTVSGGSMRGTDWGENDFHYGWIRQSSAKGLEWIGSIHWRGRTTHYKTSFRSRATLSIDTSNNRFSLTFSFVTAADTAVYYCARHKYHDIFRVVPVAGWFDPWGQGLLVTVSS
VL: EIVMTQSPPTLSVSPGETATLSCRASQNVKNNLAWYQLKPGQAPRLLIFDASSRAGGIPDRFSGSGYGTDFTLTVNSVQSEDFGDYFCQQYEEWPRTFGQGTKVDIK
neutralization IC50 [1]: > 10 µg/mL | neutralization IC80 [1]: > 10 µg/mL | neutralization IC90 [1]: > 10 µg/mL | neutralization IC95 [1]: > 10 µg/mL | neutralization IC50 [2]: > 10 µg/mL | neutralization IC80 [2]: > 10 µg/mL | neutralization IC90 [2]: > 10 µg/mL | neutralization IC95 [2]: > 10 µg/mL | neutralization IC50 [3]: > 10 µg/mL | neutralization IC80 [3]: > 10 µg/mL | neutralization IC90 [3]: > 10 µg/mL | neutralization IC95 [3]: > 10 µg/mL | neutralization IC50 [4]: > 10 µg/mL | neutralization IC80 [4]: > 10 µg/mL | neutralization IC90 [4]: > 10 µg/mL | neutralization IC95 [4]: > 10 µg/mL | neutralization IC50 [5]: > 10 µg/mL | neutralization IC80 [5]: > 10 µg/mL | neutralization IC90 [5]: > 10 µg/mL | neutralization IC95 [5]: > 10 µg/mL | neutralization IC50 [6]: 0.0915 µg/mL | neutralization IC80 [6]: 0.619 µg/mL | neutralization IC90 [6]: 1.96 µg/mL | neutralization IC95 [6]: 5.97 µg/mL | neutralization IC50 [7]: > 10 µg/mL | neutralization IC80 [7]: > 10 µg/mL | neutralization IC90 [7]: > 10 µg/mL | neutralization IC95 [7]: > 10 µg/mL | neutralization IC50 [8]: > 10 µg/mL | neutralization IC80 [8]: > 10 µg/mL | neutralization IC90 [8]: > 10 µg/mL | neutralization IC95 [8]: > 10 µg/mL | neutralization IC50 [9]: > 10 µg/mL | neutralization IC80 [9]: > 10 µg/mL | neutralization IC90 [9]: > 10 µg/mL | neutralization IC95 [9]: > 10 µg/mL | neutralization IC50 [10]: > 10 µg/mL | neutralization IC80 [10]: > 10 µg/mL | neutralization IC90 [10]: > 10 µg/mL | neutralization IC95 [10]: > 10 µg/mL | neutralization IC50 [11]: > 10 µg/mL | neutralization IC80 [11]: > 10 µg/mL | neutralization IC90 [11]: > 10 µg/mL | neutralization IC95 [11]: > 10 µg/mL | neutralization IC50 [12]: > 10 µg/mL | neutralization IC80 [12]: > 10 µg/mL | neutralization IC90 [12]: > 10 µg/mL | neutralization IC95 [12]: > 10 µg/mL | neutralization IC50 [13]: > 10 µg/mL | neutralization IC80 [13]: > 10 µg/mL | neutralization IC90 [13]: > 10 µg/mL | neutralization IC95 [13]: > 10 µg/mL | neutralization IC50 [14]: > 10 µg/mL | neutralization IC80 [14]: > 10 µg/mL | neutralization IC90 [14]: > 10 µg/mL | neutralization IC95 [14]: > 10 µg/mL | neutralization IC50 [15]: > 10 µg/mL | neutralization IC80 [15]: > 10 µg/mL | neutralization IC90 [15]: > 10 µg/mL | neutralization IC95 [15]: > 10 µg/mL | neutralization IC50 [16]: > 10 µg/mL | neutralization IC80 [16]: > 10 µg/mL | neutralization IC90 [16]: > 10 µg/mL | neutralization IC95 [16]: > 10 µg/mL | neutralization IC50 [17]: > 10 µg/mL | neutralization IC80 [17]: > 10 µg/mL | neutralization IC90 [17]: > 10 µg/mL | neutralization IC95 [17]: > 10 µg/mL | neutralization IC50 [18]: 0.0065 µg/mL | neutralization IC80 [18]: 0.0285 µg/mL | neutralization IC90 [18]: 0.0687 µg/mL | neutralization IC95 [18]: 0.159 µg/mL | neutralization IC50 [19]: > 10 µg/mL | neutralization IC80 [19]: > 10 µg/mL | neutralization IC90 [19]: > 10 µg/mL | neutralization IC95 [19]: > 10 µg/mL | neutralization IC50 [20]: > 10 µg/mL | neutralization IC80 [20]: > 10 µg/mL | neutralization IC90 [20]: > 10 µg/mL | neutralization IC95 [20]: > 10 µg/mL | neutralization IC50 [21]: 0.738 µg/mL | neutralization IC80 [21]: > 10 µg/mL | neutralization IC90 [21]: > 10 µg/mL | neutralization IC95 [21]: > 10 µg/mL | neutralization IC50 [22]: 0.0135 µg/mL | neutralization IC80 [22]: 0.0623 µg/mL | neutralization IC90 [22]: 0.156 µg/mL | neutralization IC95 [22]: 0.379 µg/mL | neutralization IC50 [23]: > 10 µg/mL | neutralization IC80 [23]: > 10 µg/mL | neutralization IC90 [23]: > 10 µg/mL | neutralization IC95 [23]: > 10 µg/mL
